± gives the standard error. Fewer inactive variants are shown than the library holds.
B1: glmS ribozyme (parent)
chain: AUAAAAGCGCCAGAACUACAGAAAUGUAGUUGACGAGGAGGAGGUUUAUCGAAUUUUCGGCGGAUGCCUCCAAA

How the values were obtained:
Settings in all cases: with glucosamine-6-phosphate
glucosamine-6-phosphate [1] = variants of: B1; assay: self-cleavage kobs at 40 uM GlcN6P; higher = faster cleavage; RNA array
Outline: (§1)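 A hybridised Cy3 probe tracked barcoded ribozyme variants, transcribed in situ by E. coli RNA polymerase on sequenced MiSeq chips, at 37 °C. The variants received 40 μM to 10 mM glucosamine-6-phosphate in HEPES/KCl/Mg(OAc)2 buffer. kobs came from decay fits and kcat and KM from weighted Michaelis–Menten fits.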

glucosamine-6-phosphate [2] = variants of: B1; assay: self-cleavage kobs at 10000 uM GlcN6P; higher = faster cleavage; RNA array
Outline: as §1

glucosamine-6-phosphate [3] = variants of: B1; assay: self-cleavage kobs at 2500 uM GlcN6P; higher = faster cleavage; RNA array
Outline: as §1

glucosamine-6-phosphate [4] = variants of: B1; assay: self-cleavage kobs at 640 uM GlcN6P; higher = faster cleavage; RNA array
Outline: as §1

glucosamine-6-phosphate [5] = variants of: B1; assay: self-cleavage kobs at 160 uM GlcN6P; higher = faster cleavage; RNA array
Outline: as §1

Row | Variant | self-cleavage kobs at 40 uM GlcN6P (glucosamine-6-phosphate [1]) | self-cleavage kobs at 10000 uM GlcN6P (glucosamine-6-phosphate [2]) | self-cleavage kobs at 2500 uM GlcN6P (glucosamine-6-phosphate [3]) | self-cleavage kobs at 640 uM GlcN6P (glucosamine-6-phosphate [4]) | self-cleavage kobs at 160 uM GlcN6P (glucosamine-6-phosphate [5])
1 | C16U G38C A48G C50U U55G | < 1e-05 s⁻¹ | < 1e-05 s⁻¹ | – | – | –
2 | G29U A33U G35A U69A | 0.000163 ± 6.6e-05 s⁻¹ | 6.21e-05 ± 3e-05 s⁻¹ | – | – | –
3 | U30A C58A G60C U69G | < 1e-05 s⁻¹ | < 1e-05 s⁻¹ | – | – | –
4 | C16G U31A G35C G40A | < 1e-05 s⁻¹ | < 1e-05 s⁻¹ | < 1e-05 s⁻¹ | – | –
5 | G29A A36U | < 1e-05 s⁻¹ | – | < 1e-05 s⁻¹ | < 1e-05 s⁻¹ | –
6 | A15U U55G C61U | < 1e-05 s⁻¹ | < 1e-05 s⁻¹ | – | – | –
7 | A15U G51U C71A | < 1e-05 s⁻¹ | < 1e-05 s⁻¹ | – | – | –
8 | U30C U31C | 3.3e-05 ± 1.1e-05 s⁻¹ | 0.00328 ± 0.00041 s⁻¹ | 0.00125 ± 0.00016 s⁻¹ | 0.000788 ± 0.00016 s⁻¹ | 0.000413 ± 7.4e-05 s⁻¹
9 | G29A G32U C34G C50A C61U | < 1e-05 s⁻¹ | < 1e-05 s⁻¹ | – | – | –
10 | G29A C70U | 0.000121 ± 1.3e-05 s⁻¹ | 0.0021 ± 0.0006 s⁻¹ | – | 0.000483 ± 6e-05 s⁻¹ | 0.000201 ± 2.9e-05 s⁻¹
11 | G29C U45A C68G | < 1e-05 s⁻¹ | < 1e-05 s⁻¹ | – | – | –
12 | U30C A33G G66U C71G | < 1e-05 s⁻¹ | < 1e-05 s⁻¹ | – | – | –
13 | U30C G38U C61U | < 1e-05 s⁻¹ | – | – | – | –
14 | U30A U31C C50G U56G C61G | 3.8e-05 ± 1.5e-05 s⁻¹ | – | – | – | –
15 | G29A U31C G35U G66A | < 1e-05 s⁻¹ | – | – | – | –
16 | U30G C71U | 0.00033 ± 5e-05 s⁻¹ | 0.00769 ± 0.0016 s⁻¹ | 0.00639 ± 0.0013 s⁻¹ | 0.00135 ± 0.00022 s⁻¹ | 0.000449 ± 0.00011 s⁻¹
17 | U30A G62A | < 1e-05 s⁻¹ | < 1e-05 s⁻¹ | < 1e-05 s⁻¹ | < 1e-05 s⁻¹ | –
18 | C16U C34U | < 1e-05 s⁻¹ | < 1e-05 s⁻¹ | – | – | < 1e-05 s⁻¹
19 | C16A G43C A48G C67U | < 1e-05 s⁻¹ | < 1e-05 s⁻¹ | – | – | –
20 | G29U A53C C68U | < 1e-05 s⁻¹ | 3.37e-05 ± 1.6e-05 s⁻¹ | – | – | –
21 | C16G G29C | 0.000686 ± 9.2e-05 s⁻¹ | 0.0294 ± 0.0058 s⁻¹ | 0.00501 ± 0.0018 s⁻¹ | 0.00972 ± 0.0043 s⁻¹ | 0.00103 ± 0.00047 s⁻¹
22 | C16A U47C C50G G66A C67U U69G | 7.74e-05 ± 2.6e-05 s⁻¹ | 4.24e-05 ± 1.6e-05 s⁻¹ | – | – | –
23 | C16A G29U | 0.000701 ± 7.4e-05 s⁻¹ | 0.0387 ± 0.0071 s⁻¹ | 0.0144 ± 0.0033 s⁻¹ | 0.00517 ± 0.00081 s⁻¹ | 0.00212 ± 0.00064 s⁻¹
